Source: the DeepSol protein solubility set

assay: soluble on expression in E. coli; label from the status in PepcDB or PDB records

Soluble on expression in E. coli, not soluble:
MGSDKIHHHHHHMIKDTVFFAPGVSGGSNASSLSSRHRRAAIILHEIYGINAHIQRAGHEWMTRGFDIYIPALFPHHTPFRYEQQEEAYRHFSANVGFDPAVVTTLLHDLRTQYETLIVVGYSVGATLAWLSAASGLCDGVVCYYGSRIRQYLHLAPLCPTLVIVARYEPAFDPLAMRQALEKRPRVQCKMYDARHGFCDADSATFDAALSHQVMDDVTAFIRDITCANTSPDFQL
PISFGLSVRKSLAKGFSVETGLTYTLLSSDAKFADSDQKTEQKLHYLGIPLKANWNFLDKKLFTLYVSGGGMIEKCVYGKLGTEKETVKPLQFSVSGAVGAQFNATKRVGIYVEPGVAYFFDDGSDVQTIRKENPFNFNIQAGIRLTY
MEEKLLVNLKENSYNIFIKKNILKNIGEEIKKIYFGNKIFIVTDENIAKLYLDKVKNNLSESGFEIKSLILKSGEETKSFNTLPKIYDSLLDFKLTRKDLIITLGGGVIGDLGGFAAATFLRGISFIQIPTSLLAQVDSSVGGKVGVDLERGKNLVGSFYQPKAVFIDPNVLLSLPEKFYRDGMAEVIKYGCIKDKTFFNKLLSLKNREEVMQHIEYIIHKCCFIKKTVVEADEKDFGDRMLLNFGHTLGHAIEKYYNFTGYTHGEAVAIGMYKITLESEKIGITKKGTSELIKSILMNYNLPYEIELRDNKSIVDAISLDKKNLGDTLKIILLKDIGESIIYNTTSKFFQEVR
MGSDKIHHHHHHMPLCPSCEMKFNSWEDLAKHMDLIANTNSDKSHVMWLNRNISMKRMEVNELANALERFFSTPNSLSMWIRTRFIERFYGDNPHPFIVAMQNPTKGVLLGYVIEHQHFLKNWVKVLSSIVFKTDKDDVLQYELENISVEFIGYNGRPAHYELLLRMGEALGMPREKILSTQPLPSTQSAIKTWRKIAESKTWLETMASMHSLELVADRSLVKYGAKLPYFNPEILSSDEYPQAVKDFLREGYEADVSHAGEALEMVEKYTEEMEMKEQVQITVLKSFDAFSKYLLARLERGFEIEPSLLKRVIK
MSKNLTITHESTFNGNKVYIDKEGLVVEYLEGIESVLENALEQYARLFIVRVDLNLPTDFRGDDSAVMTRFFRSLKSQVAAYRRRSARLNRKPYRETTIRYVWAKECDTSTSSHYHVALIFDRNIFRSLGDFGEYQQSLANRIRNAWKRSVEAMYSGKEKPAIHFSKQGQYHLLRNSEEFGEVFQSVFYRLSYLAKRRTKHFGKRMNNFGHSHK
MGSDKIHHHHHHMSQSIRQAVMQASQAWIADFNRQAFADCIARYLPEAQMQVSPFGRFDGVEAISQFWLGFAQQNPGELVYRNVEIKVLSDSQAILSANWRMNIASGFISKELWTLADDGHWYLEEDDFSVLTQLSEPLAPRMRSALVLVDLQNDYFKGGRFALDNCEAAAANAAKLLHHFRSNQLPVIHVQHIFKDPEASFFQAGTQGVEIADMVAPKGNEPVIIKHYVDSFIDTALSQTLIEMGIDKLVVVGAMAQACVQTLCRSAVKAGFECEVISDAIAAPSLSWESQDLSGEQLVAANLISLSFGGAKALSLDDWLILERLAG
MGSDKIHHHHHHMMSLSSAETIRASLHNALGKIESFKSCALLDYPDHPNIGDHLIWLGGVIYLTNVMKTQIKYTCSLHNFSPKTLEDNIGKSPIVFHGGGNLGDLWTEQQKFREGIISKYRDRPIVILPQSLYFRHEVNLIKTANIFNSHPNLTIFLRDERSYKIAREAFDKCQVFKAPDMAFQMTDLQDIFHIQNNKSSILYLSRKDREINQKQSENIFDLPNLVVEDWIAYEWKFGHPTKKLAKYVSTLYREVWQRGLATPIEWNSRQKWQNSYPYEVEFNHVYQPSIHQLSWSLMHSGVYQLKQHRLVITNRLHGHIICVLFNIPHVFLPNSYYKNEAFYEEWTKEIPDCRFIKDTSEVKIAVEELLASSTGKAIN
MGSDKIHHHHHHMNLYEKLAEDIETSIRQGVYRHGERLPSVRQISQQHRISVTTAIRAYLLLESRGLVTSRPQSGYFVNRRDESERKALELRPSKPIPISSPVDVSRLVLSTLRSIGVDDAVPLGSPYPDPSLFPFERINRYAYDAGRGKAQWGVTDALPPGNAKLVRQIARRYLENGMAVDPNEIIITVGATEAINLCLQAVAKPGDVIAVESPTFYAMLHAIERMGMKAIEVSTHPEHGIDIEALAAIVESQPIAACMVMPNFQNPLGFLMPDERKRELVELLTKRNIPVIENGVYNELHFDSPHPSTLKSFDTKGLVLHCSSFSKSLTSAYRIGWALPGRYRDQVEKLKFLNTLTSPSIPQLAIAEFLERDGFEHHLRKVRKAYAQQANLMKAIVSRFFPEGTRMSNPAGGYVLWVELPPRVDSMRLYKLALDQGITIGPGYMFSVSETTYRNFIRLNYSSPWSGEIEQAVITVGKLVSMCAS

Soluble on expression in E. coli, soluble:
MRIAAAVVSIGLAVIAGFAVPVADAHPSEPGVVSYAVLGKGSVGNIVGAPMGWEAVFTRPFQAFWVELPACNNWVDIGLPEVYDDPDLASFNGATTQTSATDQTHLVKQAVGVFASNDAADRAFHRVVDRTVGCSGQTTAIHLDDGTTQVWSFAGGPSTGTDEAWTKQEAGTDRRCFVQTRLRENVLLQAKVCQSGNAGPAVNVLAGAMQNTLG
MSLQRLLQHSSNGNLADFCAGPAYSSYSTLTGSLTMDDNRRIQMLADTVATLPRGRKQLALTRSSSLSDFSWSQRKLVTVEKQDNETFGFEIQSYRPQNQNACSSEMFTLICKIQEDSPAHCAGLQAGDVLANINGVSTEGFTYKQVVDLIRSSGNLLTIETLNGTMILKRTELEAKLQVLKQTLKQKWVEYRSLQLQEHRLLHGDAANCPSLENMDLDELSLFGPLPGPGPALVDRNRLSSESSCKSWLSSMTMDSEDGYQTCVSEDSSRGAFSRQTSTDDECFIPKEGDDFLRRSSSRRNRSISNTSSGSMSPLWEGNLSSMFGTLPRKSRKGSVRKQLLKFIPGLHRAVEEEESRF
MSLAWAPKNYIEKVVAIYDYTKDKDDELSFKEGAIIYVIKKNDDGWFEGVCNRVTGLFPGNYVESIMHYTDEGHHHHHH
MMRKLKTLPPTLRDKNRYIAFEIISDGDFTKDEVKELIWKSSLEVLGETGTAIVKPWLIKFDPNTKTGIVRSDREYVEYLRFALMLVSEFNGKRLIIRTLGVSGTIKRLKRKFLAKYGWK
MSLGVTMHDVAKAAGVSAITVSRVLNQPQQVSEQLREKVMQAVDALAYVPSRSASTLASAKSRTVLVLIPSLANTVFLETLTGIETVLDAAGYQMLIGNSHYDAGQELQLLRAYLQHRPDGVLITGLSHAEPFERILSQHALPVVYMMDLADDGRCCVGFSQEDAGAAITRHLLSRGKRRIGFLGAQLDERVMKRLDGYRAALDAADCRDAGLEWLDPQPSSMQMGADMLDRALAERPDCDALFCCNDDLAIGALARSQQLGIAVPERLAIAGFNDLQPAAWCTPPLTTVATPRRDIGVHAAKALLQLIDGEEPASRRADLGFRLMLRRSSEGHHHHHH
GAPSQGATANAETQTTIPLGDTSQNALDWPGVYEGVLPCASCEGIQTTLTLQADNSFELKSIYLGKDESIFKVAGKFDWDSNGSKITLSDGSKYLVGENQLLMLDTEGNRITGGLAEHYILKKKGM
MAHHHHHHMANNNMDDINLECENDNDNKISSEKRLVDEIIENNIEEIKKKEKDNKEKDNKEKDNKEKDIMFNIKNGLCDLEKTLDGEGYAYSNLTCRKKGIDFIPKSITRYIHLKYINLSHNNINDLVHLYFLPNIIFLDVSYNMLKEIVELKKEYLKNCIYINLSHNLISHMNNIFLKNLLEFNISYNTINNINIYISNTIRILNLSNNNIKNINFKNKLNNLLDLDISFNPIENLDFHTLMPNLVVLRINDNSTISMDKLNNLNNFKCLQSLFMQNYLYFKDISYKDVKEILLQNSKDIHLLKFNGNRLNKKTDHIEQADVNK
MNKLYIGNLSPAVTADDLRQLFGDRKLPLAGQVLLKSGYAFVDYPDQNWAIRAIETLSGKVELHGKIMEVDYSVSKKLRSRKIQIRNIPPHLQWEVLDGLLAQYGTVENVEQVNTDTETAVVNVTYATREEAKIAMEKLSGHQFENYSFKISYIPDEEVSSPSPPQRAQRGDHSSREQGHAPGGTSQARQIDFPLRILVPTQFVGAIIGKEGLTIKNITKQTQSRVDIHRKENSGAAEKPVTIHATPEGTSEACRMILEIMQKEADETKLAEEIPLKILAHNGLVGRLIGKEGRNLKKIEHETGTKITISSLQDLSIYNPERTITVKGTVEACASAEIEIMKKLREAFENDMLAVNQQANLIPGLNLSALGIFSTGLSVLSPPAGPRGAPPAAPYHPFTTHSGYFSSLYPHHQFGPFPHHHSYPEQEIVNLFIPTQAVGAIIGKKGAHIKQLARFAGASIKIAPAEGPDVSERMVIITGPPEAQFKAQGRIFGKLKEENFFNPKEEVKLEAHIRVPSSTAGRVIGKGGKTVNELQNLTSAEVIVPRDQTPDENEEVIVRIIGHFFASQTAQRKIREIVQQVKQQEQKYPQGVASQRSK
MAFNQRTVVMIGPGEHYVTAKNEVIKTLLGSCVAVCLYDPKAQVIGMNHFLLAADRRKFTHFLDSRAGYYGVHAMEILINAMLKRGAQRKYLQSKIFGGANVLSLCADNILNHYDIGGMNIDFVRHFLQRERIPIISEDIGGHCGRVIYFDPTDYSVYRSLIEHKYEEIASLQDEEYRYFNQASEDIHSSGVPVVIWSD
MYVIDTSAIISRNLNLLEGDLMFPSSVIGEIKKGKLRYMIDVLLPMIRVASPDHEYLKIVEETAAKTGDLMNLSQTDKDVLALALQYDATIVTDDYSIQNVASYLNLGFLNA
MSLEAEGDEIYEDLMRSEPVSMPPKMTEYDKRCCCLREIQQTEEKYTDTLGSIQQHFLKPLQRFLKPQDIEIIFINIEDLLRVHTHFLKEMKEALGTPGAANLYQVFIKYKERFLVYGRYCSQVESASKHLDRVAAAREDVQMKLEECSQRANNGRFTLRDLLMVPMQRVLKYHLLLQELVKHTQEAMEKENLRLALDAMRDLAQCVNEVKRDEGHHHHHH
MSLKRVIGYIRVSTDNQDLERQRVLIRKYCENKGYSLLRIEEDYAISGTVSNRNGLNSILNITNSVADMVVVSELSRLSRQDDIFETLTQIHTIIRNVDLVILDEPDKVYEAGKTIILSDFLMLAIKAYGAADERKKIVSRMTTGKDSKVQAFPLMLTDSNIPTGFKAVPNPNYIKGATPKMLLVEDEERMQLVRDIFNYVANGLSLGKTAEKLNMLGYRTARNKPFYEQSIRTIINDSIYNGVRYWKGMKLELPVKFISDEIWNLAHKKVQENKNYSGEGHHHHHH
MKISAVVVTFNRKKLLLECLNALRNQTYPLDAIFIIDGPSTDGTPEALLECGYIKELPPKKGNWSWETKNVIYSPINNKPIKVYYVRLYKDVGGSGGFYEGVKRAYEEGYNWIWLMDDDAEPREDALEKLIRYMNLPGVIALAPTVIRPTGEISKPHRGILCFKKIFPMIQIPLDESKYKSNQPVQIDFVSFVGPLIKRDAIKIVGFPKKEFFIHHDDVEYSIRLRTVGKIYLIPDSVIIHKENIKKTSLIKKRFLGKTIYRIPYNKLWKTYYGTRNLTYLGRIYSKSKFKFYFKLLKRWAVSVGAIILFDDHKIKRIQFITSAYLDGLRGKFDNEKPKRILYGGKKELEHHHHHH
MKEKTPFKNEKEFHDMVKKTKKGTFSGWYIVNPENNSVEFSGNFNRQFKLNKPVIPVNTEYVTRKEFNEYKDSNDQRLIKIETTLAAQGEQIRIQGEQIKELQIEQKAQSETLKLILQTLQKMSDRLDKMDVRLDKLESK
